Assay results: patent publication US20220411492A1 (QILU PHARMACEUTICAL, published 2022)

Assays:
[1] = molecular target: T1, human Claudin 18.2 (hCLDN18.2) (human, UniProt P56856-2 1-261); experiment: FACS, PDX-hCLDN18.2 gastric cancer tumor tissue-derived cells
T1 construct: whole, on cells; also called CLDN18A2; claudin 18 splice variant 2
From the text: (§1) FACS was used to detect the binding of anti-CLDN18.2 chimeric antibodies to HEK293 cells stably transfected expressing hCLDN18.2 (HEK293-hCLDN18.2) and gastric cancer tumor tissue-derived cells naturally expressing hCLDN18.2 (PDX-hCLDN18.2).

[2] = molecular target: murine CLDN18.2 (mCLDN18.2) (murine) (UniProt P56857); experiment: FACS, HEK293-mCLDN18.2 cells
[3] = molecular target: T1, human Claudin 18.2 (hCLDN18.2); experiment: cell-based or functional assay
[4] = molecular target: T1, human Claudin 18.2 (hCLDN18.2); experiment: cell-based or functional assay; remark: listed apart in the source
[5] = molecular target: T1, human Claudin 18.2 (hCLDN18.2); experiment: FACS, HEK293-hCLDN18.2 cells
From the text: as §1

Row | EC50 [1] [nM] | Mean maximum fluorescence intensity (Top MFI) [1] [MFI] | EC50 [2] [nM] | Mean maximum fluorescence intensity (Top MFI) [2] [MFI] | CDC EC50 [3] [µg/mL] | CDC Maximum lysis (%) [3] [%] | ADCC EC50 [4] [µg/mL] | ADCC Maximum lysis (%) [4] [%] | EC50 [5] [nM] | Mean maximum fluorescence intensity (Top MFI) [5] [MFI] | Binder
1 | 20.1 | 17500 | 1.63 | 10600 | 0.177 | 94.8 | 0.022 | 34.5 | 2.7 | 7820 | ch-39C8 (antibody, V domains shown, also called chimeric antibody of clone 39C8) VH: QVQLQQSGAGLVKPGASVKISCKASGYAFSSYWMIWVKQRPGKGLEWIGQIYPGDGDTNYNGKFKGKATLTADKSSSTAFMQLSSLTSEDSAVYFCTRIYYGNAFAYWGQGTLVTVSA VL: DIVMTQSPSSLTVTAGEKVTMSCKSSQSLLNSGNQKNYLTWYQQKPGQPPKLLIYWASTRESGVPDRFTGSGSGTDFTLTISSVQAEDLAVYYCQNDYSYPFTFGSGTKLEIK
2 | 7.42 | 15700 | 0.764 | 7400 | 0.13 | 94.5 | 0.02 | 39.1 | 2.42 | 10400 | ch-42D2 (antibody, V domains shown, also called chimeric antibody of clone 42D2) VH: EVQLQQSGPVLVKPGASVKMSCKASGYTFTDYQMNWVKQSHGKSLEWIGFINPYNGGIRYNQKFKGKATLTVDKSSSTAYMELNSLTSEDSAVYYCATIYFGNSFANWGQGTLVTVSA VL: DIVMTQSPSSLTVTAGEKVTMSCKPSQSLLNSGNQKNYLTWYQQKPGQPPRLLIYWASTRESGVPDRFTGSGSGTDFTLTISSVQAEDLAVYYCQNDYIYPYTFGGGTNLEIK
3 | 15 | 17100 | 0.573 | 7640 | 0.065 | 95 | 0.01 | 36.6 | 2.12 | 9970 | ch-126A11 (antibody, V domains shown, also called chimeric antibody of clone 126A11) VH: QVQLKESGPGLVAPSQSLSITCTVSEFSLTTYGVSWVRQPPGKGLEWLGVIWGDGSTNYHSALISRLSISKDTSKSQVFLKLNSLQTDDTATYYCAKPGLRNAMDYWGQGTSVTVSS VL: DIVMTQSPSSLSVSAGEKVTMSCKSSQSLLNSGNQKNYLAWYQQKPGQPPKLLIYGASTRESGVPDRFTGSGSGTDFTLTISSVQAEDLAVYYCQNDLIYPLTFGAGTKLELK
4 | 4.55 | 14600 | 1.24 | 12700 | 0.139 | 94.8 | 0.021 | 36.7 | 2.31 | 9270 | ch-239E9 (antibody, V domains shown, also called chimeric antibody of clone 239E9) VH: QVQLQQSGPELVRPGVSVKISCKGSSYTFTDYTMHWVKQSHAKSLEWIGFIGVYYGNTNYNQKFKGKATMTVDKSSSTAYMELARLTSEDSAVYYCARIGRGNAMDYWGQGTSVTVSS VL: DIVMTQSPSSLTVTAGEKVTMSCKSSQSLLNSGNQKNYLTWYQQKPGQPPKLLIYWASTRESGVPDRFTGSGSGTDFTLTISSVQAEDLAVYNCQNAYSYPFTFGSGTKLEIK
5 | 10.7 | 15700 | 1.19 | 12700 | 0.165 | 96.1 | 0.023 | 29.1 | 2.46 | 9870 | ch-229C9 (antibody, V domains shown, also called chimeric antibody of clone 229C9) VH: DVQLQESGPDLVKPSQSLSLICTVTGYSITSGYSWHWIRQFPGNKLEWMGYIHYSGGTNYNPSLKSRISFTRDTSKNQFFLQLNSVTTEDTATYYCARLERGNSFAYWGQGTLVTVSA VL: DIVMTQSPSSLTVTAGEKVTMSCKSTQSLLNSGNQKNYLTWYQQKPGQPPKLLIYWASTRESGVPDRFTGSGSGTDFTLTISSLQAEDLAVYYCQNDYFYPFTFGSGTKLEIK
6 | 15.8 | 16500 | 0.948 | 8980 | 0.179 | 95.4 | 0.022 | 31.1 | 2.2 | 8380 | ch-252F11 (antibody, V domains shown, also called chimeric antibody of clone 252F11) VH: EIQLVESGGGLVRPGGSLKLSCAASGFSFKNYVMSWVRQSPERRLEWVAEIRTGGDYTYYVDTVTGRFTISRDNAKNTLYLEMTSLRSEDTATYYCARVGYGNSLDYWGQGTTLTVSS VL: DIVMTQSPSSLTVTAGEKVTMSCKSSQSLLNSGNQKNYLTWYQQKPGQPPKLLIYWASTRESGVPDRFTGSGSGTDFTLTISSVQAEDLAVYSCQNNYFYPLTFGAGTELELK
